Numbering of substitutions follows the chain as printed.
B1: SRP2193-C09 (antibody, IgG1, V domains shown)
VH: EVQLVESGGGLVQPGGPLRLSCAASGFNINHSYIHWVRQAPGKGLEWVGAIDPISGSTVYADSVKGRFTISADTSKNTAYLQMNSLRAEDTAVYYCARSRWSRVLWSYVFDYWGQGTLVTVSS
VL: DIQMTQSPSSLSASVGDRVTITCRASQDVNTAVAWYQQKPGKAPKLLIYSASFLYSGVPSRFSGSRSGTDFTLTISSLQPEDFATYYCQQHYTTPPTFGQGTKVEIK
notes: His/FLAG-tagged IgG1, cell-free; also called Antibody 118
B2: SRP2193-E05 (antibody, IgG1, V domains shown)
VH: EVQLVESGGGLVQPGGSLRLSCAASGFNIKRSYIHWVRQAPGKGLEWVVSIDPNGSSTHYADSVKGRFTISADTSKNTAYLQMNSLRAEDTAVYYCARSRWFRVLWSYVLDYWGQGTLVTVSS
VL: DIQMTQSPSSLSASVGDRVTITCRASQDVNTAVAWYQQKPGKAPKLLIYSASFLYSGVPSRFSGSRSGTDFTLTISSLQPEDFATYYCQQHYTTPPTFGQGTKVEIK
notes: His/FLAG-tagged IgG1, cell-free; also called Antibody 84
B3: SRP2193-D06 (antibody, IgG1, V domains shown)
VH: B1 VH with P17S, N30R, H31D, S32Y, G49R, I54H, S102F
VL: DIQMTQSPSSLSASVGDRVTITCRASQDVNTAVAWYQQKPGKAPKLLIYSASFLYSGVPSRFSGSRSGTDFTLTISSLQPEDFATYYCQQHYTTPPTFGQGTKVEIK
notes: His/FLAG-tagged IgG1, cell-free; also called Antibody 80
B4: SRP2193-B11 (antibody, IgG1, V domains shown)
VH: B1 VH with P17S, N30T, H31G, I54K, S57F, V59S, V64A, S102F, Y108F
VL: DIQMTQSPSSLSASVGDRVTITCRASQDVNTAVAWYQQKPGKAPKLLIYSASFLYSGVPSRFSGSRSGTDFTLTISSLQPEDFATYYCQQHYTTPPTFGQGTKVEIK
notes: His/FLAG-tagged IgG1, cell-free; also called Antibody 100
B5: SRP2193-C11 (antibody, IgG1, V domains shown)
VH: B1 VH with P17S, N30A, H31D, G49A, A50V, I54K, V59N, S102F
VL: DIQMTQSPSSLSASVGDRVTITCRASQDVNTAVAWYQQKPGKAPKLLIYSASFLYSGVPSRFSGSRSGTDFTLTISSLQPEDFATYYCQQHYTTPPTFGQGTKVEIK
notes: His/FLAG-tagged IgG1, cell-free
B6: SRP2193-E06 (antibody, IgG1, V domains shown)
VH: EVQLVESGGGLVRPGGSLRLSCAASGFNIDDYYIHWVRQAPGKGLEWVGVIDPKNGSTVYADSVKGRSTISADTPKSTAYLQMNSLRAEDTAVYYCARSRWFRVLWSYVFDYWGQGTLVTVSS
VL: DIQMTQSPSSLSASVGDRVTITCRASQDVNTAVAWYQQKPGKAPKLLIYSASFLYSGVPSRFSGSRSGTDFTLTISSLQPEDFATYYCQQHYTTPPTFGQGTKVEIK
notes: His/FLAG-tagged IgG1, cell-free; also called Antibody 73
B7: SRP2193-C02 (antibody, IgG1, V domains shown)
VH: B1 VH with P17S, N30S, H31D, S32Y, A50T, I54Q, K76E, S102F, Y108F
VL: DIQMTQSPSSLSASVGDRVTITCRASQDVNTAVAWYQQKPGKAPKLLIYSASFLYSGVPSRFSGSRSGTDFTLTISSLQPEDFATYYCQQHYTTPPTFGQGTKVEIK
notes: His/FLAG-tagged IgG1, cell-free; also called Antibody 81
B8: SRP2193-D04 (antibody, IgG1, V domains shown)
VH: B1 VH with P17S, H31G, S32F, I54N, S55G, S102Y, V109A
VL: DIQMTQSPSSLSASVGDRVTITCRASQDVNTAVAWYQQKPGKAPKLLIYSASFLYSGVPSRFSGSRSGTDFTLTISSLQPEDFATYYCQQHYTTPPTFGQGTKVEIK
notes: His/FLAG-tagged IgG1, cell-free; also called Antibody 71
B9: SRP2193-B09 (antibody, IgG1, V domains shown)
VH: B1 VH with P17S, H31N, A50I, I54N, S55N, V59A, S102Y, F110L
VL: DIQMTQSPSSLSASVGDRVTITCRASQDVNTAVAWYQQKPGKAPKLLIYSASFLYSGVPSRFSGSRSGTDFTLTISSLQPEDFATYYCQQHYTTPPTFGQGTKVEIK
notes: His/FLAG-tagged IgG1, cell-free; also called Antibody 75
B10: Conjugate 5 (2188-D04-F404-LP8) (antibody, human IgG1, kappa)
heavy: MEVQLVESGGGLVQPGGSLRLSCAASGFNISDYDIHWVRQAPGKGLEWVGGIDPADGSTDYADSVKGRFTISADTSKNTAYLQMNSLRAEDTAVYYCARDYGVYDYWGQGTLVTVSSASTKGPSVFPLAPSSKSTSGGTAALGCLVKDYFPEPVTVSWNSGALTSGVHTFPAVLQSSGLYSLSSVVTVPSSSLGTQTYICNVNHKPSNTKVDKKVEPKSCDKTHTCPPCPAPELLGGPSVFLFPPKPKDTLMISRTPEVTCVVVDVSHEDPEVKFNWYVDGVEVHNAKTKPREEQYNSTYRVVSVLTVLHQDWLNGKEYKCKVSNKALPAPIEKTISKAKGQPREPQVYTLPPSREEMTKNQVSLTCLVKGFYPSDIAVEWESNGQPENNYKTTPPVLDSDGSFLYSKLTVDKSRWQQGNVFSCSVMHEALHNHYTQKSLSLSPGK
light: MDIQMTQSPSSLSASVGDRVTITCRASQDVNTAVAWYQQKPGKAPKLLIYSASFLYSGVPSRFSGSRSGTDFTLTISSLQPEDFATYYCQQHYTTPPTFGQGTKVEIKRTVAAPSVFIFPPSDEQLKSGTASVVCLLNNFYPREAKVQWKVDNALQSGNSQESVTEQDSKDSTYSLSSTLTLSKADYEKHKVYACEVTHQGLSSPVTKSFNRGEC
modifications: pAMF at HC-F404 (the * of the entry), conjugated to LP8 (DBCO-GGG-EDA PNU)
B11: Conjugate 1 (2188-D04-Y180/F404-LP1) (antibody, human IgG1, kappa)
heavy: MEVQLVESGGGLVQPGGSLRLSCAASGFNISDYDIHWVRQAPGKGLEWVGGIDPADGSTDYADSVKGRFTISADTSKNTAYLQMNSLRAEDTAVYYCARDYGVYDYWGQGTLVTVSSASTKGPSVFPLAPSSKSTSGGTAALGCLVKDYFPEPVTVSWNSGALTSGVHTFPAVLQSSGLSLSSVVTVPSSSLGTQTYICNVNHKPSNTKVDKKVEPKSCDKTHTCPPCPAPELLGGPSVFLFPPKPKDTLMISRTPEVTCVVVDVSHEDPEVKFNWYVDGVEVHNAKTKPREEQYNSTYRVVSVLTVLHQDWLNGKEYKCKVSNKALPAPIEKTISKAKGQPREPQVYTLPPSREEMTKNQVSLTCLVKGFYPSDIAVEWESNGQPENNYKTTPPVLDSDGSFLYSKLTVDKSRWQQGNVFSCSVMHEALHNHYTQKSLSLSPGK
light: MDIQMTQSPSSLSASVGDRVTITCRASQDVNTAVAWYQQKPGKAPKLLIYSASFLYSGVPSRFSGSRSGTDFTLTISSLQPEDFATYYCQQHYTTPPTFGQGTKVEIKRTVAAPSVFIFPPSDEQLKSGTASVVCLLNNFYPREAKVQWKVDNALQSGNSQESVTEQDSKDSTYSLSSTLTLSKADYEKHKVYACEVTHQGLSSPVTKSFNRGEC
modifications: pAMF at HC-Y180 and HC-F404 (the * of the entry), conjugated to LP1 (DBCO-Valcit-pAB-hemiasterlin)
B12: Conjugate 2 (2188-D04-Y180/F404/K42-LP1) (antibody, human IgG1, kappa)
heavy: B11 heavy
light: MDIQMTQSPSSLSASVGDRVTITCRASQDVNTAVAWYQQKPGAPKLLIYSASFLYSGVPSRFSGSRSGTDFTLTISSLQPEDFATYYCQQHYTTPPTFGQGTKVEIKRTVAAPSVFIFPPSDEQLKSGTASVVCLLNNFYPREAKVQWKVDNALQSGNSQESVTEQDSKDSTYSLSSTLTLSKADYEKHKVYACEVTHQGLSSPVTKSFNRGEC
modifications: pAMF at LC-K42 (the * of the entry), conjugated to LP1; pAMF at HC-Y180 and HC-F404 (the * of the entry), conjugated to LP1
B13: Conjugate 6 (2188-D04-Y180/F404-LP10) (antibody, human IgG1, kappa)
heavy: B11 heavy
light: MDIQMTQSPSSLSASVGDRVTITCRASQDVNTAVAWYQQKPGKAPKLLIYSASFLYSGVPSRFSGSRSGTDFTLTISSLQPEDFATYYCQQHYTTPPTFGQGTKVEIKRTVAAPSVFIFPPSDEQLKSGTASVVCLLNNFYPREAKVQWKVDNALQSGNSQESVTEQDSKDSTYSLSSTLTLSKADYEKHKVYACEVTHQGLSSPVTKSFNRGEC
modifications: pAMF at HC-Y180 and HC-F404 (the * of the entry), conjugated to LP10 (DBCO-PEG4-GGFG-aminol-Dxd)
B14: Conjugate 4 (2188-D04-Y180/F404/K42/E161-LP1) (antibody, human IgG1, kappa)
heavy: B11 heavy
light: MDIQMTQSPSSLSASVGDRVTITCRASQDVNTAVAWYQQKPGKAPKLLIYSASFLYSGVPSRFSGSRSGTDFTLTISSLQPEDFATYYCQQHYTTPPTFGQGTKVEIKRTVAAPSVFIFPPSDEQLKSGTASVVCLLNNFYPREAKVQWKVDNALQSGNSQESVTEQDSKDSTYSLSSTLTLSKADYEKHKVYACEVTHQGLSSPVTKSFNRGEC
modifications: pAMF in place of LC-K42 and LC-E161 (Kabat numbering), conjugated to LP1; pAMF at HC-Y180 and HC-F404 (the * of the entry), conjugated to LP1
B15: Conjugate 7 (2188-D04-Y180/F404/K42/E161-LP10) (antibody, human IgG1, kappa)
heavy: B11 heavy
light: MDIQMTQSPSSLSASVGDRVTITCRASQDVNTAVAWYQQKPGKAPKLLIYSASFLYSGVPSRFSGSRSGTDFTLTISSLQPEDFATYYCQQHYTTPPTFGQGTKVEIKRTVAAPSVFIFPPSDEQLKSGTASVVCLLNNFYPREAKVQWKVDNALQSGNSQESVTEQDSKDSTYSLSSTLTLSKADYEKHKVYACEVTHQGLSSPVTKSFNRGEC
modifications: pAMF in place of LC-K42 and LC-E161 (Kabat numbering), conjugated to LP10; pAMF at HC-Y180 and HC-F404 (the * of the entry), conjugated to LP10
B16: Conjugate 5 (D04-F404-LP8) (antibody, human IgG1, kappa)
heavy: B10 heavy
light: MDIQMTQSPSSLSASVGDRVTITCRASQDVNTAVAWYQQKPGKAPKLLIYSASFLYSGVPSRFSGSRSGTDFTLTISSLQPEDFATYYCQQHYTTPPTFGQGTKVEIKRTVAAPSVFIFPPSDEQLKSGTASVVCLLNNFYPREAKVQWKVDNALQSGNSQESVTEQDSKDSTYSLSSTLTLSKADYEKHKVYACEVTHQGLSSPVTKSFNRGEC
modifications: pAMF at F404 (EU), linked to LP8
B17: Conjugate 41 (D04-F404-LP24) (antibody, human IgG1, kappa)
heavy: B10 heavy
light: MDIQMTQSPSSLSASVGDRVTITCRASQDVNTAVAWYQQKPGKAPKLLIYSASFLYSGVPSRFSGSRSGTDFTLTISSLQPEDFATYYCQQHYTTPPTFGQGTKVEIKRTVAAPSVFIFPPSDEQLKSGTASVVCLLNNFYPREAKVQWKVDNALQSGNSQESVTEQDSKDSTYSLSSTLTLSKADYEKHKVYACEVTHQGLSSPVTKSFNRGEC
modifications: pAMF at F404 (EU), linked to LP24
B18: Conjugate 45 (D04-F404-LP28) (antibody, human IgG1, kappa)
heavy: B10 heavy
light: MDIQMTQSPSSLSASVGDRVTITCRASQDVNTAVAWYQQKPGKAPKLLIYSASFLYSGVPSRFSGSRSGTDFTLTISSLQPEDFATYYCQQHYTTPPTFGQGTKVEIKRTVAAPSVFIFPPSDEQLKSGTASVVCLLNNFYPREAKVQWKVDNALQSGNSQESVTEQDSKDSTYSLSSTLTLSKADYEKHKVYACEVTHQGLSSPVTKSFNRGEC
modifications: pAMF at F404 (EU), linked to LP28
B19: Conjugate 37 (D04-F404-LP33) (antibody, human IgG1, kappa)
heavy: B10 heavy
light: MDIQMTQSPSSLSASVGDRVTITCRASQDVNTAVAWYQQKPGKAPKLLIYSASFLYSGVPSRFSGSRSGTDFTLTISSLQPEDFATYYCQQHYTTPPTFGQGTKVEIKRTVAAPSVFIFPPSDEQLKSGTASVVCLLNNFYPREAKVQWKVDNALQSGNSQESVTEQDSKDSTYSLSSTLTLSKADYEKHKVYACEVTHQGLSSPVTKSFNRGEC
modifications: pAMF at F404 (EU), linked to LP33
B20: Conjugate 44 (D04-F404-LP27) (antibody, human IgG1, kappa)
heavy: B10 heavy
light: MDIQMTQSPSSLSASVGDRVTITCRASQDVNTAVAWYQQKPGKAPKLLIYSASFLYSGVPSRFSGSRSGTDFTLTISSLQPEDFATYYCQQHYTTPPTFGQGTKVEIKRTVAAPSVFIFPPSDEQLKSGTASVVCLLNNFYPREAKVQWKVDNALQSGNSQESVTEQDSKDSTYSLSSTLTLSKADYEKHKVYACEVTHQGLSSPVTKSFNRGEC
modifications: pAMF at F404 (EU), linked to LP27
B21: Conjugate 42 (D04-F404-LP25) (antibody, human IgG1, kappa)
heavy: B10 heavy
light: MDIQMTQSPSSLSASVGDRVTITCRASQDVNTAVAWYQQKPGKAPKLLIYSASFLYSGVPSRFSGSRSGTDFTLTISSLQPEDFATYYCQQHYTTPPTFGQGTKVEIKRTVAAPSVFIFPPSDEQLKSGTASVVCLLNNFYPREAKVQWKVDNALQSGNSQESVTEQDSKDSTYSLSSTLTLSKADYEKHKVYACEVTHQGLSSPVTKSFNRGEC
modifications: pAMF at F404 (EU), linked to LP25
B22: Conjugate 43 (D04-F404-LP26) (antibody, human IgG1, kappa)
heavy: B10 heavy
light: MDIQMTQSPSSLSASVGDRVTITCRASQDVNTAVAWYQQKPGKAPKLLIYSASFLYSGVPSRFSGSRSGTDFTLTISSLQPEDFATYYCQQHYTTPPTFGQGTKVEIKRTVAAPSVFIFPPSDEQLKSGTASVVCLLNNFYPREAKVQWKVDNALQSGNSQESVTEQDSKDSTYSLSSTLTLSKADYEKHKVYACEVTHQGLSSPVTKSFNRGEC
modifications: pAMF at F404 (EU), linked to LP26
B23: SRP2193-A01 (antibody, IgG1, V domains shown)
VH: B1 VH with P17S, H31D, S32H, I54T, Y60F, S102F
VL: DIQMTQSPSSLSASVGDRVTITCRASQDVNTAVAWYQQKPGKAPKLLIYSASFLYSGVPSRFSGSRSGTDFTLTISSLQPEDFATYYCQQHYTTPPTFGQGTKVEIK
notes: as for B5
B24: SRP2193-A06 (antibody, IgG1, V domains shown)
VH: B1 VH with P17S, H31A, S32Y, G49D, I54D, V59H, Y60N, S102F, V109I
VL: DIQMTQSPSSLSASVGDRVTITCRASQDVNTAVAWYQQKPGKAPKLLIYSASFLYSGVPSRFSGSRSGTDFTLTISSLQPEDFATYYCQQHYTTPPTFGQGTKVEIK
notes: His/FLAG-tagged IgG1, cell-free; also called Antibody 85
B25: SRP2193-A05 (antibody, IgG1, V domains shown)
VH: B2 VH with R31G, S32Y, V49S, S50V, G55S, S56G, H59I, Y60F
VL: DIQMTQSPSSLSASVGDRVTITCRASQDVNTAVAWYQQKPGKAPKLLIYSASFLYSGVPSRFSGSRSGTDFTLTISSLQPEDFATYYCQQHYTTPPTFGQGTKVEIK
notes: His/FLAG-tagged IgG1, cell-free; also called Antibody 116
B26: SRP2193-A03 (antibody, IgG1, V domains shown)
VH: B1 VH with P17S, N30A, H31N, S32Y, Y33H, I54K, Y60H, S107T
VL: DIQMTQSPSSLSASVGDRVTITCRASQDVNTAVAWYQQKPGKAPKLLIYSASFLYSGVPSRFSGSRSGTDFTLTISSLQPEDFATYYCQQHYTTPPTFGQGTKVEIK
notes: as for B5
B27: SRP2193-A04 (antibody, IgG1, V domains shown)
VH: B1 VH with P17S, N30I, H31S, S32Y, I54N, V59L, Y60L, S102F, F110Y
VL: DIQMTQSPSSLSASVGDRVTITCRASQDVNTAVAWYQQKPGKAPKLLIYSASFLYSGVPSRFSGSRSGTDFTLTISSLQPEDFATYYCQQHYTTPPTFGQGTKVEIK
notes: as for B5
B28: SRP2193-A02 (antibody, IgG1, V domains shown)
VH: B1 VH with P17S, N30H, H31A, I54K, V59Y, S102L, V109I
VL: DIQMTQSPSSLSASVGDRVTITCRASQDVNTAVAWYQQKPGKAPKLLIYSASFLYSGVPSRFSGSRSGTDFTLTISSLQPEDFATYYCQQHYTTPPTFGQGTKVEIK
notes: His/FLAG-tagged IgG1, cell-free; also called Antibody 83

Each binder was assayed against T1, human ROR1 (hROR1) (human, UniProt Q01973 30-937) (assay: cell-based or functional assay).

| Binder | Mino Nb-PBD, drug-conjugated 2° antibody Cell Killing EC50 [pM] | Mino Nb-PBD, drug-conjugated 2° antibody Cell Killing Span [%] |
| --- | --- | --- |
| B1 | 1.6 | 64 |
| B2 | 0.34 | 70 |
| B3 | 5.7 | 68 |
| B4 | 1.3 | 66 |
| B5 | 1.5 | 63 |
| B6 | 2.5 | 63 |
| B7 | 3.4 | 62 |
| B8 | 4.5 | 65 |
| B9 | 2.9 | 67 |

Biological target: T1, human ROR1 (hROR1)
Experiment: cell-based or functional assay
Remark: another data set of the same source

| Binder | cell killing on ROR1 positive NTERA-2 cells, EC50 [pM] | cell killing on ROR1 positive NTERA-2 cells, Span [%] |
| --- | --- | --- |
| B10 | 10.1 | 83 |
| B11 | > 10000 | < 20 |
| B12 | 82 | 49 |
| B13 | 80 | 53 |
| B14 | 22 | 63 |
| B15 | 48 | 94 |

Each binder was assayed against T2, receptor tyrosine kinase orphan receptor 1 (ROR1) on Ntera-2 cells (human, UniProt Q01973 30-937) (assay: cell-based or functional assay).

| Binder | cell killing EC50, NTERA-2 cells [pM] | cell killing Span, NTERA-2 cells [%] |
| --- | --- | --- |
| B16 | 21 | 85 |

Biological target: T2, receptor tyrosine kinase orphan …
Experiment: cell-based or functional assay
Remark: another data set of the same source

| Binder | cell killing EC50, NTERA-2 cells [pM] | cell killing Span, NTERA-2 cells [%] |
| --- | --- | --- |
| B17 | > 10000 | < 10 |
| B18 | > 10000 | < 10 |
| B19 | 10 | 89 |
| B20 | 17 | 80 |
| B21 | 75 | 58 |
| B16 | 13 | 83 |
| B22 | > 10000 | < 10 |

The binders below were run against T1, human ROR1 (hROR1) (assay: flow cytometry, HCT116-hROR1 cells).

| Binder | Bmax (MFI) | Kd [pM] |
| --- | --- | --- |
| B1 | 15500 | 350 |
| B2 | 18300 | 100 |
| B3 | 14300 | 280 |
| B4 | 15200 | 460 |
| B5 | 15700 | 640 |
| B6 | 14700 | 5820 |
| B7 | 15800 | 850 |
| B8 | 15000 | 700 |
| B9 | 15200 | 230 |

These binders were tested against T3, human ROR1 Frizzled domain (hROR1-Fz) (human, UniProt Q01973 165-305) (assay: SPR Biacore, IgG on anti-Fc, ROR1-Fz analyte).
T3 construct: Acro Biosystems, made in HEK293
Procedure, shortened: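 Test antibodies captured on an anti-Fc surface (CM5 chip), then analyte bound for 180 s with 600 s dissociation at 25° C in HBS-EP+ buffer at 50 μL/min. Human ROR1 ECD, Frizzled or Kringle domain used as analyte; regeneration with 10 mM glycine pH 2.0.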

| Binder | Kd [pM] | koff [s⁻¹] | kon [M⁻¹ s⁻¹] |
| --- | --- | --- | --- |
| B1 | 2220 | 0.000394 | 178000 |
| B2 | 674 | 0.000199 | 295000 |
| B3 | 101000 | 0.6 | 5.94e+06 |
| B4 | 1590 | 0.000251 | 158000 |
| B5 | 2370 | 0.000273 | 115000 |
| B6 | 2230 | 0.000246 | 111000 |
| B7 | 6200 | 0.00173 | 278000 |
| B8 | 2810 | 0.000292 | 104000 |
| B9 | 1900 | 0.000226 | 119000 |

What follows are binders tested against T1, human ROR1 (hROR1) (assay: flow cytometry, HCT116-hROR1 cells; NSB = non-saturating binding).

| Binder | binding result |
| --- | --- |
| B23 | binds |
| B24 | binds |
| B25 | binds |
| B26 | binds |
| B27 | binds |
| B28 | binds |

— patent publication US20240058465A1 (SUTRO BIOPHARMA, published 2024)
